{"source": "patent US20230105457A1", "about": "“Immunogenic Compounds For Treatment Of Adrenal Cancer” (ENTEROME S.A., priority 2019, published 2023)", "key": {"HLA-A*0201": {"biological_target": "HLA-A*0201 (Homo sapiens, UniProt P04439, D140Y/D185E/D98H/E176V/E277Q/G131W/G231S/I119V/I121R/I166T/I218V/L300P/L318F/N151K/N90K/P208A/P217A/Q86G/Q94H/R138H/R169H/T345S)", "conditions": "for Mean fluorescence intensity: T2 cells"}, "[1]": {"test_system": "splenocytes of β/A2/DR3 mice", "assay": "ELISPOT-IFNγ assay on splenocytes of vaccinated β/A2/DR3 mice (Example 2)", "assay_type": "in vivo, mouse", "conditions": "label = vaccination peptide", "text": "Briefly, 14 β/A2/DR3 mice were assigned randomly (based on mouse sex and age) to two experimental groups, each immunized with a specific vaccination peptide (vacc-pAg) combined to a common helper peptide (h-pAg) (as outlined in Table 7 below). The vacc-pAg were compared in couples (group 1 vs. group 2). Thereby, both native and optimized versions of a single peptide were compared in each wave.\nThe animals were immunized on day 0 (d0) with a prime injection, and on d14 with a boost injection. Each mouse was injected s.c. at tail base with 100 μL of an oil-based emulsion that contained: • 100 μg of vacc-pAg (25 μL of 4 mg/mL stock per mouse); • 150 μg of h-pAg (15 μL of 10 mg/mL stock per mouse); • 10 μL of PBS to reach a total volume of 50 μL (per mouse); • Incomplete Freund's Adjuvant (IFA) added at 1:1 (v:v) ratio (50 μL per mouse).\nA separate emulsion was prepared for each vacc-pAg, as follows: IFA reagent was added to the vacc-pAg/h-pAg/PBS mixture in a 15 mL tube and mixed on vortex for repeated cycles of 1 min until forming a thick emulsion.\nSeven days after the boost injection (i.e. on d21), the animals were euthanized and the spleen was harvested. Splenocytes were prepared by mechanical disruption of the organ followed by 70 μm-filtering and Ficoll density gradient purification.\nThe splenocytes were immediately used in an ELISPOT-IFNγ assay (Table 8). Experimental conditions were repeated in quadruplets, using 2*105 total splenocytes per well, and were cultured in presence of vacc-pAg (10 μM), Concanavalin A (ConA, 2.5 μg/mL) or medium-only to assess for their capacity to secrete IFNγ. The commercial ELISPOT-IFNγ kit (Diaclone Kit Mujrine IFNγ ELISpot) was used following the manufacturer's instructions, and the assay was performed after about 16 h of incubation.\nSpots were counted on a Grand ImmunoSpot® S6 Ultimate UV Image Analyzer interfaced to the ImmunoSpot 5.4 software (CTL-Europe). Data plotting and statistical analysis were performed with the Prism-5 software (GraphPad Software Inc.).\nThe cell suspensions were also analyzed by flow cytometry, for T cell counts normalization. The monoclonal antibody cocktail (data not shown) was applied on the purified leucocytes in presence of Fc-block reagents targeting murine (1:10 diluted ‘anti-mCD16/CD32 CF11 clone’—internal source) Fc receptors. Incubations were performed in 96-well plates, in the dark and at 4° C. for 15-20 minutes. The cells were washed by centrifugation after staining to remove the excess of monoclonal antibody cocktail, and were re-suspended in PBS for data acquisition.\nThe data were then normalized as a number of specific spots (the average counts obtained in the ‘medium only’ condition being subtracted) per 10^6 total T cells.\nThe individual average values (obtained from the quadruplicates) were next used to plot the group average values (see FIG. 3A). As the functional capacity of T cells might vary from individual to individual, the data were also expressed as the percentage of the ConA response per individual (see FIG. 3B)."}, "[2]": {"test_system": "CD8 T cells from PBMC of HLA-A*02 healthy donors", "assay": "Detection of peptide-specific CD8 T cells with pMHC multimers after in vitro amplification (Example 14)", "assay_type": "cell-based, human", "conditions": "one HLA-A2 healthy donor, after in vitro amplification with bacteria peptide loaded T2 cells", "description": "Identification and quantification of T cells specific clones were performed using peptide MHC multimers (pMHC). pMHC multimers are recombinantly produced and coupled with fluorescent labels. Binding of pMHC multimers to T cells allows identification and sorting by flow cytometry of specific T cells harboring TCRs able to specifically recognize selected pMHC complexes.\nIn vitro amplification method and specific pMHC multimers have been used for identification of IL13RA2-L-, BIRC5-B1- and FOXM1-B2-specific T cells. pMHC multimers were generated for all the bacteria peptides and their respective human counterpart. PBMCs from several HLA-A*02 healthy donors (up to 19 donors) were collected, enriched after CD137 and CD8 selection and subjected to multiple rounds of in vitro amplification with bacteria peptides loaded T2 cells to increase the number of specific T cell clones. Detection of bacteria and human peptide-specific CD8 T cells using cytometry analysis with the fluorescent multimer was performed on enriched CD8 T cell populations."}}, "note": "Like-named read-outs stand apart in the source and are kept apart here.", "data": [{"sequence": "WLPFGFILI [IL13RA2-H, reference compound]", "values": [{"measurement": "Concentration of peptide that induces 20% of HLA-A2 expression", "setting": "HLA-A*0201; T2 cell line, HLA-A*0201, Example 13, protocol as in Example 3", "value": 62.3, "unit": "µM"}, {"measurement": "Concentration that induces 20% of expression of the HLA-A*0201", "setting": "HLA-A*0201; T2 cells (Example 1)", "value": 100, "unit": "µM"}, {"measurement": "Mean fluorescence intensity", "setting": "HLA-A*0201; peptide at 0.1 μM (Example 1)", "value": 7.46}, {"measurement": "Mean fluorescence intensity", "setting": "HLA-A*0201; peptide at 1 μM (Example 1)", "value": 9.41}, {"measurement": "Mean fluorescence intensity", "setting": "HLA-A*0201; peptide at 10 μM (Example 1)", "value": 11.61}, {"measurement": "Mean fluorescence intensity", "setting": "HLA-A*0201; peptide at 100 μM (Example 1)", "value": 18.64}, {"measurement": "Percentage of ConA-induced response (mean+/−SEM), ELISPOT-IFNγ", "setting": "[1]; ex vivo restimulation with IL13RA2-B pAg (10 μM)", "value": 2.0, "unit": "%+/−0.8"}, {"measurement": "Percentage of ConA-induced response (mean+/−SEM), ELISPOT-IFNγ", "setting": "[1]; ex vivo restimulation with IL13RA2-H pAg (10 μM)", "value": 1.1, "unit": "%+/−0.8"}, {"measurement": "Peptide-specific CD8 T cells detected (pMHC multimer)", "setting": "[2]", "value": 0.22, "unit": "%"}]}]}
